Test results from PMC5080380, “Mechanical Strength and Inhibition of the Staphylococcus aureus Collagen-Binding Protein Cna” (mBio, 2016).

Assays:
[1] = target: type II collagen purified from bovine nasal septum (bovine) (UniProt P02459); assay: single-cell force spectroscopy (AFM); a single living Cna^(+) S. aureus Phillips bacterium on a colloidal probe cantilever against a Cn substrate (NHS chemistry); PBS, 20°C; contact time 100 ms, 250 pN, 1,000 nm s^-1; Cna^(−) cells as control
[2] = target: type II collagen purified from bovine nasal septum (bovine) (UniProt P02459); assay: single-molecule force spectroscopy (AFM); Cn tips (NHS chemistry) on living Cna^(+) S. aureus Phillips bacteria trapped in porous membranes; PBS, 20°C; contact time 100 ms, 250 pN, 1,000 nm s^-1; Cna^(−) cells and 9G7 MAb (10 µg/ml) as controls
[3] = target: T1, type II collagen purified from bovine nasal septum (bovine, UniProt P02459 182-1241); assay: single-molecule force spectroscopy (AFM); recombinant CNA fragment on the tip at low density by a PEG-benzaldehyde linker, Cn on the substrate by NHS chemistry; PBS, 20°C; contact time 250 ms, maximum applied force 250 pN, approach and retraction speeds 1,000 nm s^-1 (retraction speed varied for the loading-rate plot and koff); 8 tips and substrates; conditions: both partners purified
T1 construct: Collagen type II, bovine, purified from nasal septum; collagen alpha-1(II) chain; Attached to gold-coated tips or substrates by NHS/EDC chemistry, or coated on microtiter wells; also called Cn; type II Cn; source: purified from bovine nasal septum (as described by Strawich and Nimni)

[4] = target: T1, type II collagen purified from bovine …; assay: single-molecule force spectroscopy (AFM); inverse configuration: Cn on the tip and CNA_(31–344) on the substrate, both by NHS chemistry; PBS, 20°C; contact time 250 ms, 250 pN, 1,000 nm s^-1 (retraction speed varied for koff); 6 tips and substrates; conditions: both partners purified

Chain of type II collagen purified from bovine nasal septum (bovine) (P02459 182-1241): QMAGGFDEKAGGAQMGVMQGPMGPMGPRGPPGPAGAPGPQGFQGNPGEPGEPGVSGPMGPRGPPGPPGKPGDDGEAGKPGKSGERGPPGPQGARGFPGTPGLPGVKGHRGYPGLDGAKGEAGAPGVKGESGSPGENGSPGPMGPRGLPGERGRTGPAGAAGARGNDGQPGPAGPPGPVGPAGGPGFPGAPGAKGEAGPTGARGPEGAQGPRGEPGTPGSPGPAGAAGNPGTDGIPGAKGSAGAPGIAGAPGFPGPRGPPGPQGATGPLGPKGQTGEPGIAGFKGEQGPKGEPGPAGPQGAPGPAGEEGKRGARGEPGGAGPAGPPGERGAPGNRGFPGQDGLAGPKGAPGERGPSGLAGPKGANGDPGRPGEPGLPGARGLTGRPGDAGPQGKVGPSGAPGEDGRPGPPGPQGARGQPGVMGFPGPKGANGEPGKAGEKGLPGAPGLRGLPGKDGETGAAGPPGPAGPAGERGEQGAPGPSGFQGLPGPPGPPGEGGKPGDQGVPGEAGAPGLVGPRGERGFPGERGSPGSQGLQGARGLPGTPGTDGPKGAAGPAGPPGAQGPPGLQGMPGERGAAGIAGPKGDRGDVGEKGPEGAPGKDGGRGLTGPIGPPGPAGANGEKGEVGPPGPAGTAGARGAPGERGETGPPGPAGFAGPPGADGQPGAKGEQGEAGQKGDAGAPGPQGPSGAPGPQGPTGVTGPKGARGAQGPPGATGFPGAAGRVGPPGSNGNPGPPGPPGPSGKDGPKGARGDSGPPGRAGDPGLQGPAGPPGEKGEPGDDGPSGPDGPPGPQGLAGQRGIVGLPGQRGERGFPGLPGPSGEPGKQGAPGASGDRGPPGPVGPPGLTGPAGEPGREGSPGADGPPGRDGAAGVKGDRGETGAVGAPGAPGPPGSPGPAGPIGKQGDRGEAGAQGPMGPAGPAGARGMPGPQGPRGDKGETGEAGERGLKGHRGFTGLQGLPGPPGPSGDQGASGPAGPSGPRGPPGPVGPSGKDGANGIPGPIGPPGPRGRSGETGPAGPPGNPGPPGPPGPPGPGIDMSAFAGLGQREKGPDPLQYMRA
T1 sequence (P02459 182-1241): as above

full-length collagen-binding protein Cna expressed on living Staphylococcus aureus strain Phillips cells (natural protein)
adhesion force (single cell) [1]: 100 to 5000 pN | fraction of force curves with adhesion force peaks [1]: 54 to 89% | strong adhesion force (single cell), cell no. 1 [1]: 2120 pN | strong adhesion force (single cell), cell no. 2 [1]: 3380 pN | strong adhesion force (single cell), cell no. 3 [1]: 2500 pN | strong adhesion force (single cell), cell no. 4 [1]: 3250 pN | strong adhesion force (single cell), cell no. 5 [1]: 1890 pN | strong adhesion force (single cell), cell no. 6 [1]: 3620 pN | strong adhesion forces (single cell) [1]: 3160 pN | weak adhesion forces (single cell) [1]: 670 pN | strong adhesion forces (single molecule) [2]: 1170 pN | weak adhesion forces (single molecule) [2]: 239 pN

B1: recombinant CNA_(31–344), N1N2 subdomains of the A region of the Staphylococcus aureus collagen-binding protein Cna (domain or fragment)
chain: RDISSTNVTDLTVSPSKIEDGGKTTVKMTFDDKNGKIQNGDMIKVAWPTSGTVKIEGYSKTVPLTVKGEQVGQAVITPDGATITFNDKVEKLSDVSGFAEFEVQGRNLTQTNTSDDKVATITSGNKSTNVTVHKSEAGTSSVFYYKTGDMLPEDTTHVRWFLNINNEKSYVSKDITIKDQIQGGQQLDLSTLNINVTGTHSNYYSGQSAITDFEKAFPGSKITVDNTKNTIDVTIPQGYGSYNSFSINYKTKITNEQQKEFVNNSQAWYQEHGKEEVNGKSFNHTVHNINANAGIEGTVKGELKVLKQDKDTKA
notes: Collagen adhesin Cna of S. aureus FDA 574, residues 31 to 344 (predicted N1N2 subdomains of the A region); In the assay it was coupled covalently to the AFM tip (PEG-benzaldehyde linker) or to the substrate (NHS chemistry); source: recombinant, cloned into plasmid pQE30, purified
koff [3]: 0.0002 s⁻¹ | koff [4]: 0.0005 s⁻¹
